From publication PMC3103430, “RecA Proteins from Deinococcus geothermalis and Deinococcus murrayi - Cloning, Purification and Biochemical Characterisation” (BMC Molecular Biology, 2011)

How the values were obtained:
[1] = tested on: Nc1ncnc2c1ncn2[C@H]1C[C@H](O)[C@@H](COP(=O)(O)OP(=O)(O)OP(=O)(O)O)O1; test: purified protein; format: biochemical, Deinococcus geothermalis; details: ssDNA-dependent (80-nt oligonucleotide, 12.16 μM nucleotides), 11.56 mM MgCl2, 20 mM Tris-HCl pH 7.5, 37 °C, Hill fit, n 1.2
[2] = tested on: Nc1ncnc2c1ncn2[C@@H]1O[C@H](COP(=O)(O)OP(=O)(O)OP(=O)(O)O)[C@@H](O)[C@H]1O; test: purified protein; format: biochemical, Deinococcus geothermalis; details: ssDNA-dependent (80-nt oligonucleotide, 12.16 μM nucleotides), 11.56 mM MgCl2, 20 mM Tris-HCl pH 7.5, 37 °C, Hill fit, n 2.9

**Q.** Which results are given for “DgeRecA (Deinococcus geothermalis DSM 11300)”?
**A.** Km [1]: 620 ± 23 µM; kcat [1]: 0.21 ± 0.007 s⁻¹; kcat/Km [1]: 330 ± 10 M⁻¹ s⁻¹; Km [2]: 560 ± 18 µM; kcat [2]: 0.15 ± 0.004 s⁻¹; kcat/Km [2]: 270 ± 12 M⁻¹ s⁻¹
